From the supplement of paper PMC10567573

B1: FAM46D (parent)
chain: FQEAMTHLQHKLICTRKPEEIRGG
B2: TTC32 (parent)
chain: YSAYIRRCACAASSDESPGSKCSP
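Note: lentivirally expressed fusions sorted by FACS into six bins by GFP to DsRed ratio, PSI derived from sequencing read proportions per bin multiplied by bin number.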

Variants of: B1
Test: protein stability index of a GFP-peptide fusion (GPS, HEK-293T) (PSI 1-6); higher = more stable
Conditions: c terminus: a fixed tail appended
G23R showed a protein stability index of 2.45.
For G23N, the protein stability index was 3.01.
For G23S, the protein stability index was 2.71.
G23P gave a protein stability index of 2.87.
Work on G23H yielded a protein stability index of 2.61.
Variant G23K has a protein stability index of 3.19.
In the case of G23Q, the protein stability index is reported as 2.34.
With G23F the protein stability index was 2.02.
G23A showed a protein stability index of 2.76.
G23M gave a protein stability index of 2.6.
G23T showed a protein stability index of 2.14.
Variant G23L has a protein stability index of 2.66.
Work on G23C yielded a protein stability index of 2.08.
G23Y gave a protein stability index of 2.41.
For G23I, the protein stability index was 2.6.
G23V gave a protein stability index of 2.15.
Work on G23E yielded a protein stability index of 2.16.
Work on G23W yielded a protein stability index of 2.48.
Variant G23D has a protein stability index of 3.08.
R22Y gave a protein stability index of 1.91.
Variant R22W has a protein stability index of 1.41.
G24W gave a protein stability index of 1.68.
Variant G24K has a protein stability index of 3.34.
G24P showed a protein stability index of 2.64.
In the case of G24M, the protein stability index is reported as 1.85.
In the case of G24D, the protein stability index is reported as 2.96.
G24F showed a protein stability index of 2.3.
G24Q showed a protein stability index of 2.91.
Variant G24S has a protein stability index of 2.9.
Work on G24R yielded a protein stability index of 2.07.
Work on G24L yielded a protein stability index of 2.45.
For G24T, the protein stability index was 2.96.
For G24E, the protein stability index was 2.49.
G24V gave a protein stability index of 3.09.
Work on G24A yielded a protein stability index of 2.26.
For G24I, the protein stability index was 1.91.
In the case of G24H, the protein stability index is reported as 2.26.
With G24C the protein stability index was 2.52.
In the case of G24Y, the protein stability index is reported as 2.59.
For G24N, the protein stability index was 2.51.

Variants of: B2
Test: as above
Conditions: c terminus: a fixed tail appended
R7D gave a protein stability index of 3.92.
R7P gave a protein stability index of 3.01.
In the case of R7N, the protein stability index is reported as 2.78.
In the case of R7F, the protein stability index is reported as 2.59.
In the case of R7I, the protein stability index is reported as 1.42.
In the case of R7L, the protein stability index is reported as 2.16.
Variant R7M has a protein stability index of 2.14.
For R7G, the protein stability index was 2.7.
Work on R7A yielded a protein stability index of 2.17.
With R7H the protein stability index was 1.9.
R7E showed a protein stability index of 2.81.
For R7K, the protein stability index was 2.23.
In the case of R7C, the protein stability index is reported as 1.55.
Work on I5L yielded a protein stability index of 2.12.
For I5N, the protein stability index was 3.13.
Work on I5F yielded a protein stability index of 2.51.
I5V gave a protein stability index of 1.85.
Work on I5Q yielded a protein stability index of 2.09.
Variant I5T has a protein stability index of 2.61.
I5A showed a protein stability index of 1.86.
In the case of I5C, the protein stability index is reported as 2.15.
For I5P, the protein stability index was 2.24.
For I5E, the protein stability index was 3.46.
In the case of I5S, the protein stability index is reported as 2.52.
Work on I5M yielded a protein stability index of 2.29.
Work on I5R yielded a protein stability index of 2.27.
With I5G the protein stability index was 2.09.
Variant I5Y has a protein stability index of 2.45.
Work on I5K yielded a protein stability index of 2.65.
I5W gave a protein stability index of 3.7.
I5D gave a protein stability index of 3.16.
I5H showed a protein stability index of 2.82.
For S2H, the protein stability index was 4.15.
Variant S2E has a protein stability index of 2.7.
S2Q gave a protein stability index of 2.02.
Work on S2P yielded a protein stability index of 2.59.
In the case of S2C, the protein stability index is reported as 2.06.
Variant S2K has a protein stability index of 1.92.
With S2L the protein stability index was 2.
S2T showed a protein stability index of 2.1.
For S2F, the protein stability index was 2.16.
For S2G, the protein stability index was 2.37.
S2A showed a protein stability index of 2.38.
With S2D the protein stability index was 2.6.
In the case of S2M, the protein stability index is reported as 1.91.
With S2V the protein stability index was 2.52.
With S2W the protein stability index was 1.91.
S2N gave a protein stability index of 2.35.
With S2I the protein stability index was 1.58.
In the case of S2R, the protein stability index is reported as 1.82.
Work on S2Y yielded a protein stability index of 1.92.
Work on Y4N yielded a protein stability index of 2.85.
With Y4E the protein stability index was 3.34.
Y4I showed a protein stability index of 2.08.
Y4G gave a protein stability index of 3.35.
Y4M showed a protein stability index of 2.1.
Variant Y4L has a protein stability index of 2.45.
With Y4A the protein stability index was 2.01.
For Y4W, the protein stability index was 3.57.
Y4P gave a protein stability index of 2.45.
Work on Y4H yielded a protein stability index of 2.12.
Work on Y4Q yielded a protein stability index of 2.65.
In the case of Y4F, the protein stability index is reported as 1.92.
For Y4R, the protein stability index was 2.67.
In the case of Y4S, the protein stability index is reported as 2.29.
Y4K gave a protein stability index of 2.5.
Y4T gave a protein stability index of 2.24.
Variant Y4V has a protein stability index of 3.07.
In the case of Y4D, the protein stability index is reported as 3.36.
Work on Y4C yielded a protein stability index of 2.4.
For A3Y, the protein stability index was 1.75.
Work on A3W yielded a protein stability index of 2.19.
For A3D, the protein stability index was 2.62.
Variant A3N has a protein stability index of 1.54.
Variant A3T has a protein stability index of 2.16.
Variant A3E has a protein stability index of 1.92.
In the case of A3I, the protein stability index is reported as 1.51.
A3G gave a protein stability index of 2.
In the case of A3P, the protein stability index is reported as 1.69.
In the case of A3R, the protein stability index is reported as 1.89.
A3H gave a protein stability index of 2.15.
With A3M the protein stability index was 2.15.
A3S showed a protein stability index of 2.43.
Variant A3K has a protein stability index of 2.44.
In the case of A3Q, the protein stability index is reported as 2.91.
In the case of A3V, the protein stability index is reported as 2.05.
With A3C the protein stability index was 2.02.
In the case of A3F, the protein stability index is reported as 1.86.
For A3L, the protein stability index was 2.18.
Variant R6S has a protein stability index of 2.41.
Variant R6Q has a protein stability index of 2.
For R6C, the protein stability index was 2.26.
R6M gave a protein stability index of 1.33.
For R6E, the protein stability index was 2.9.
With R6G the protein stability index was 2.53.
With R6N the protein stability index was 2.58.
With R6I the protein stability index was 2.43.
R6P showed a protein stability index of 2.66.
Variant R6F has a protein stability index of 2.64.
R6Y gave a protein stability index of 2.25.
For R6W, the protein stability index was 3.52.
R6L showed a protein stability index of 2.07.
Work on R6K yielded a protein stability index of 1.97.
In the case of R6D, the protein stability index is reported as 3.62.
With R6H the protein stability index was 1.82.
Variant R6A has a protein stability index of 2.07.
Work on R6T yielded a protein stability index of 2.08.
R6V showed a protein stability index of 1.74.
In the case of Y1F, the protein stability index is reported as 2.27.
Y1P gave a protein stability index of 2.88.
For Y1V, the protein stability index was 2.17.
Work on Y1N yielded a protein stability index of 2.96.
Variant Y1G has a protein stability index of 2.48.
For Y1H, the protein stability index was 2.65.
Work on Y1D yielded a protein stability index of 3.44.
Y1R showed a protein stability index of 2.64.
In the case of Y1W, the protein stability index is reported as 2.45.
Y1I showed a protein stability index of 1.72.
In the case of Y1C, the protein stability index is reported as 2.04.
Y1E showed a protein stability index of 3.29.
With Y1K the protein stability index was 2.75.
With Y1Q the protein stability index was 2.56.
In the case of Y1L, the protein stability index is reported as 2.61.
Work on Y1A yielded a protein stability index of 2.62.
For Y1S, the protein stability index was 2.54.
For Y1T, the protein stability index was 2.52.
Y1M gave a protein stability index of 2.45.
